Measured values reported in the supplement of paper PMC10065799, “High-throughput profiling of sequence recognition by tyrosine kinases and SH2 domains using bacterial peptide display” (eLife, 2023).

Legend:
Grb2 SH2 = Grb2 SH2 (UniProt P62993); experiment: SH2 binding enrichment of the phosphorylated peptide, bacterial display (enrichment ratio); higher = better substrate or ligand; peptides without Tyr show the background
c-Src SH2 = experiment: as above
SHP2-C SH2 = experiment: as above
Fyn = Fyn (UniProt P06241); experiment: phosphorylation enrichment, bacterial display (enrichment ratio); higher = better substrate or ligand; peptides without Tyr show the background
Sequence of Fyn (P06241 whole entry, looked up): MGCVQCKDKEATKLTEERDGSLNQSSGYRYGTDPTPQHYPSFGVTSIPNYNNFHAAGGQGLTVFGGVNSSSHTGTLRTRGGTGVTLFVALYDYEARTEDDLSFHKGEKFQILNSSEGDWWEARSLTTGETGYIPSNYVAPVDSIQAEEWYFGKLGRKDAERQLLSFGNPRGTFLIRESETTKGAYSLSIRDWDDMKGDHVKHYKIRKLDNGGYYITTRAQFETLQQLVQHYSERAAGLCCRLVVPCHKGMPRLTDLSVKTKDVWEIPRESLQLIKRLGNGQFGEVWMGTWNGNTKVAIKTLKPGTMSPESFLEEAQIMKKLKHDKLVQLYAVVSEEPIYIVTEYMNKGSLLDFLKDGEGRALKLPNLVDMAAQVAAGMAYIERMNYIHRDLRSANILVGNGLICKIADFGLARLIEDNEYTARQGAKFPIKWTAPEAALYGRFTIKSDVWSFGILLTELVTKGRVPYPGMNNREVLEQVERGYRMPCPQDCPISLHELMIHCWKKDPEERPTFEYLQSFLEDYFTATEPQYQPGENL

c-Abl (mouse) = experiment: as above
EPHB2 = EPHB2 (UniProt P29323); experiment: as above
AncSZ = experiment: as above
FGFR3 = FGFR3 (UniProt P22607); experiment: as above
Jak2 = Jak2 (UniProt O60674); experiment: as above
Sequence of Jak2 (O60674 whole entry, looked up): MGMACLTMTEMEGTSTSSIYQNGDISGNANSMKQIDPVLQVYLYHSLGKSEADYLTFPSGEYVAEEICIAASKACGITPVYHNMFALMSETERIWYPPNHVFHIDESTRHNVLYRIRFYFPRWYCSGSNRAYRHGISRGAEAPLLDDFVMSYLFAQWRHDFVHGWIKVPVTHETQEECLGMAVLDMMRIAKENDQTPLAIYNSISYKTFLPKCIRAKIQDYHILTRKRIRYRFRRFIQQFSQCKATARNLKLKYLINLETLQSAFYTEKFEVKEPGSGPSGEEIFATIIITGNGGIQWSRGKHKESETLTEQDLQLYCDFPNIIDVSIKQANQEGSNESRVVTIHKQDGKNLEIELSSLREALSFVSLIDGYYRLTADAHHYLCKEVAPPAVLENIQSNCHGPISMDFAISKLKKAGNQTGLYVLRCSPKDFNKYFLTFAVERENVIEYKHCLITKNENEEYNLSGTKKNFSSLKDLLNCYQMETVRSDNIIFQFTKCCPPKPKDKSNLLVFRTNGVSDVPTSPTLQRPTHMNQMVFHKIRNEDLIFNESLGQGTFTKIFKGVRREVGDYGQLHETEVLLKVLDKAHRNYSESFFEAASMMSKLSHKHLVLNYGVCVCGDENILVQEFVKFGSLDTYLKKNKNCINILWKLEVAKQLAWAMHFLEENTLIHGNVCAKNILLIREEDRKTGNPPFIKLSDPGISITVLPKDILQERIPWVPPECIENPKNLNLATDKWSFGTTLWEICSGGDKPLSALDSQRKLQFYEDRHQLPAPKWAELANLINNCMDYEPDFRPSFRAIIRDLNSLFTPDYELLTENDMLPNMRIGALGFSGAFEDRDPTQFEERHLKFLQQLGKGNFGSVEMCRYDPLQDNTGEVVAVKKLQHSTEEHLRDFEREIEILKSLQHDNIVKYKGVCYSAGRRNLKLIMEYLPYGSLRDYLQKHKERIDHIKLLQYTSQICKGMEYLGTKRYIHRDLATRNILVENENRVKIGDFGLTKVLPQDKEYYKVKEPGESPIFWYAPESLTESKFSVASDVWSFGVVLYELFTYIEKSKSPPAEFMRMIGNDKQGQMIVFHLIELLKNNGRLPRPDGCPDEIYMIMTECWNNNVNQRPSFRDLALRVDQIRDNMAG

Hck = Hck (UniProt P08631); experiment: as above
Fes = Fes (UniProt P07332); experiment: as above
Sequence of Fes (P07332 whole entry, looked up): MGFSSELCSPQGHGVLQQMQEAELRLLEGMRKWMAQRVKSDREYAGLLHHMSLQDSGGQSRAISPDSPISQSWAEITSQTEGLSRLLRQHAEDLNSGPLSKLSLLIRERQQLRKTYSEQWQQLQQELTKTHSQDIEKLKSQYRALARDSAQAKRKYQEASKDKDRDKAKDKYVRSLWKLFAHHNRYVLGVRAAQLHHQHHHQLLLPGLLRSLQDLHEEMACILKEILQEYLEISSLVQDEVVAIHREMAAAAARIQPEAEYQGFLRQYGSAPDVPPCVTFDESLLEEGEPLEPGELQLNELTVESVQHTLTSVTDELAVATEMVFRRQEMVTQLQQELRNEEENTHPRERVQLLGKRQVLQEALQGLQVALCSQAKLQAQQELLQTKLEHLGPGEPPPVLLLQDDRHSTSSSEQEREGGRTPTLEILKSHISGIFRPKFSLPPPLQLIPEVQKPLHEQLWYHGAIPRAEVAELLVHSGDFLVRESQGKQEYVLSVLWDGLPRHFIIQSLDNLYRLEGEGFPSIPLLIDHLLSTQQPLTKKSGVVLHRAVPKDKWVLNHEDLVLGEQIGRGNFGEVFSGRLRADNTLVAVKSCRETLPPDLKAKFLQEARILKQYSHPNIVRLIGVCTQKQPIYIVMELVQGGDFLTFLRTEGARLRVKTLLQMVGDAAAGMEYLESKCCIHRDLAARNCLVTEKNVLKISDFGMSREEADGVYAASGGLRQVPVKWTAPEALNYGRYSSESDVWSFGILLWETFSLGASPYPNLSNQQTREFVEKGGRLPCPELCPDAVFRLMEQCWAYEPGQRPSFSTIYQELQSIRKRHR

Fer (mouse) = experiment: as above
EPHB1 = EPHB1 (UniProt P54762); experiment: as above
Sequence of EPHB1 (P54762 whole entry, looked up): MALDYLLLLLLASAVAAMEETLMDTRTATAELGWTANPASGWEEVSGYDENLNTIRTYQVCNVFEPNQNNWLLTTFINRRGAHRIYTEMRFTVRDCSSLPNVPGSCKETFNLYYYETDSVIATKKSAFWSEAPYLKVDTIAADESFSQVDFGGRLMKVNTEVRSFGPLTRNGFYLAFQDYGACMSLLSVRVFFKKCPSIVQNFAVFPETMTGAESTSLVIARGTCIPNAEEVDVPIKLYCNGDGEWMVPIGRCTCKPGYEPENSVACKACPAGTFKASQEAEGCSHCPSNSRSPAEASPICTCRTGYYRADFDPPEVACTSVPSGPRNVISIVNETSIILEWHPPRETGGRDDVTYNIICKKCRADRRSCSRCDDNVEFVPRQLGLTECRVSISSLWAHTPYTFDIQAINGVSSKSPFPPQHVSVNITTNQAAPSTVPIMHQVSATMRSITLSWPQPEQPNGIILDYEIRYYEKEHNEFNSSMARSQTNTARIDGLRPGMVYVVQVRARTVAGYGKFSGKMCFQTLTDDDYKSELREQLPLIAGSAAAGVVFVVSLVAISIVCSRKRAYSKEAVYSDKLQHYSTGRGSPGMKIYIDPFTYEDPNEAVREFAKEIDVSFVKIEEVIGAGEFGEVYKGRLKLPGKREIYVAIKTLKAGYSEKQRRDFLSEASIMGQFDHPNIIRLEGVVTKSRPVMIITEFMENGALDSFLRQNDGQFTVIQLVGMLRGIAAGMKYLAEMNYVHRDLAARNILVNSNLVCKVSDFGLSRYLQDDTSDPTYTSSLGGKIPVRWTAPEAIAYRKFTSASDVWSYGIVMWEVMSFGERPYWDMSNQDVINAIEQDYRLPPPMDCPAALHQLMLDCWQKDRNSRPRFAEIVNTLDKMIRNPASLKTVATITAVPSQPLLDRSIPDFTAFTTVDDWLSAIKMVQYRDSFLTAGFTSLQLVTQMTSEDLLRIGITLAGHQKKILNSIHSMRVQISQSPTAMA

MERTK = MERTK (UniProt Q12866); experiment: as above
Sequence of MERTK (Q12866 whole entry, looked up): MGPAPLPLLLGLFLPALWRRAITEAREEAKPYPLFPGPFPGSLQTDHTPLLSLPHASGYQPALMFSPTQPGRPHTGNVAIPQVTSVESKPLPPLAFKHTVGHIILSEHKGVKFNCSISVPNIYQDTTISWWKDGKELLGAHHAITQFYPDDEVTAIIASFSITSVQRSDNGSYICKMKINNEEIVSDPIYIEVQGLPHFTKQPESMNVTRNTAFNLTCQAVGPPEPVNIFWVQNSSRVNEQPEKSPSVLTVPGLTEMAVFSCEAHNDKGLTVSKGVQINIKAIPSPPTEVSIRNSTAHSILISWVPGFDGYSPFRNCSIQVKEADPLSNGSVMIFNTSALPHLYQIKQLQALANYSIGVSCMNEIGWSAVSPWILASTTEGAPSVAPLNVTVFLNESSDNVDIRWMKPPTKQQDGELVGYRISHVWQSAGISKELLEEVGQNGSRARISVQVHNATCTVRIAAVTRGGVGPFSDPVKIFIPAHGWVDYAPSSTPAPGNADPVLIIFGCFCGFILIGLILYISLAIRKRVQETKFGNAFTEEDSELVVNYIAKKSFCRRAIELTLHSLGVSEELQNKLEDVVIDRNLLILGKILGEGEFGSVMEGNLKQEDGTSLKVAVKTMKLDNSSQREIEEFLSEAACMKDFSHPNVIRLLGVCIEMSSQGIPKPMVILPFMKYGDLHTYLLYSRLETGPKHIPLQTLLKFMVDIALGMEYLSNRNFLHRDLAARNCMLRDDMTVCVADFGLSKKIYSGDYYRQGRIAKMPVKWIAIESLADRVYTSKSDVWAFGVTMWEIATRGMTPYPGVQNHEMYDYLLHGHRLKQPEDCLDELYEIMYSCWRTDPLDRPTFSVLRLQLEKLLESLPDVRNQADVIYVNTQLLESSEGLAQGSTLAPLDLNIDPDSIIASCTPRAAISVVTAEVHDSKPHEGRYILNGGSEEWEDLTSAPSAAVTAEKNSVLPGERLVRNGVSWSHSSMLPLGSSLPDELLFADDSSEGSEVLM

FGFR1 = FGFR1 (UniProt P11362); experiment: as above
c-Src = experiment: as above
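For SH2 binding enrichment of the phosphorylated peptide, bacterial display in this document: peptide library displayed on the E. coli surface as eCPX fusions, selected cells deep-sequenced, score is each peptide's frequency after selection divided by its frequency in the input.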
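For phosphorylation enrichment, bacterial display in this document: 11-residue human phosphosite peptides and single-mutation variants displayed on the E. coli surface, counted by deep sequencing, each peptide's frequency after selection divided by its frequency in the unselected input library; frequency after pTyr selection over input frequency; kinase dosed for 20-30% of maximal phosphorylation in three min.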

Sequence of Grb2 SH2 (P62993 whole entry, looked up): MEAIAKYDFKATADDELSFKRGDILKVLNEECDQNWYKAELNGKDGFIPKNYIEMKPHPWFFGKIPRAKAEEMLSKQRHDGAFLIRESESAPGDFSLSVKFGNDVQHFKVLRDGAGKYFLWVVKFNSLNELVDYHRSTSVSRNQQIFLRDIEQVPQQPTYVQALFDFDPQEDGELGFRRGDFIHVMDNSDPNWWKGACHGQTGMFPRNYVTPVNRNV

Row | Sequence | SH2 binding enrichment (Grb2 SH2) | SH2 binding enrichment (c-Src SH2) | SH2 binding enrichment (SHP2-C SH2) | phosphorylation enrichment (Fyn) | phosphorylation enrichment (c-Abl (mouse)) | phosphorylation enrichment (EPHB2) | phosphorylation enrichment (AncSZ) | phosphorylation enrichment (FGFR3) | phosphorylation enrichment (Jak2) | phosphorylation enrichment (Hck) | phosphorylation enrichment (Fes) | phosphorylation enrichment (Fer (mouse)) | phosphorylation enrichment (EPHB1) | phosphorylation enrichment (MERTK) | phosphorylation enrichment (FGFR1) | phosphorylation enrichment (c-Src)
1 | KHMADYPDCKF [SOX11_Y113_Y116C_YF] | 1.18 | 0.573 | 0.859 | 0.423 | 0.703 | 0.556 | 0.92 | 0.74 | 0.879 | 0.475 | 1.04 | 0.495 | 0.532 | 0.456 | 0.587 | 0.397
2 | KHVMPYAANKN [GRIN2A_Y1431_E1426K] | 1.03 | 0.92 | 1.2 | 0.345 | 0.484 | 0.43 | 0.547 | 0.387 | 0.443 | 0.332 | 0.511 | 0.374 | 0.301 | 0.383 | 0.401 | 0.36
3 | KIITDYYVDMK [MPP4_Y566_V562I] | 0.861 | 3.04 | 0.82 | 0.55 | 0.677 | 0.718 | 1.09 | 2.6 | 1.22 | 0.449 | 0.941 | 0.482 | 1.56 | 0.547 | 4.12 | 0.517
4 | KILAKYSLETS [NAMPT_Y175_L176S] | 0.871 | 0.388 | 0.529 | 0.354 | 0.476 | 0.409 | 0.537 | 0.456 | 0.503 | 0.437 | 0.58 | 0.377 | 0.335 | 0.256 | 0.442 | 0.301
5 | KILGTYFETGS [PAX2_Y72_R71T_YF] | 0.848 | 0.638 | 0.982 | 0.577 | 0.668 | 0.47 | 0.833 | 0.793 | 0.717 | 0.485 | 0.867 | 0.467 | 0.491 | 0.5 | 0.814 | 0.585
6 | KITVIYDGACQ [VWDE_Y1035] | 0.697 | 0.479 | 0.486 | 0.51 | 0.837 | 0.664 | 1.1 | 0.778 | 1.14 | 0.711 | 1.28 | 0.574 | 0.599 | 0.437 | 0.438 | 0.721
7 | KLFYIYTPGTT [SLC27A4_Y245_S247P] | 0.798 | 0.471 | 1.15 | 0.404 | 0.784 | 0.584 | 1.25 | 0.899 | 1.43 | 0.527 | 1.17 | 0.594 | 0.666 | 1.66 | 0.753 | 0.58
8 | KLIMECLPYGS [JAK2_Y931_Y931C] | 0.767 | 0.451 | 0.606 | 0.513 | 0.738 | 0.649 | 0.907 | 0.766 | 0.886 | 0.512 | 0.998 | 0.448 | 0.564 | 0.489 | 0.542 | 0.424
9 | KLKNAYEECLE [MYH7_Y1488_S1491C] | 1.08 | 2.71 | 0.755 | 0.438 | 0.799 | 0.554 | 1.15 | 0.739 | 0.984 | 0.642 | 1.16 | 0.615 | 0.501 | 0.432 | 0.508 | 0.502
10 | KLNNEHLELNF [MME_Y497_Y497H_YF] | 0.783 | 0.419 | 0.542 | 0.453 | 0.805 | 0.466 | 0.88 | 0.662 | 0.813 | 0.464 | 0.921 | 0.423 | 0.514 | 0.405 | 0.462 | 0.454
11 | KLRMEYLSLMH [NCKIPSD_Y660] | 2.08 | 1.44 | 1.97 | 0.438 | 0.8 | 0.609 | 0.857 | 0.737 | 0.976 | 0.515 | 0.991 | 0.455 | 0.524 | 0.419 | 0.52 | 0.445
12 | KLVQLYVVCTK [BTK_Y461_G462V] | 0.881 | 0.482 | 1.01 | 0.416 | 0.928 | 0.523 | 1.3 | 0.785 | 1.2 | 0.528 | 1.16 | 0.584 | 0.809 | 0.45 | 0.565 | 0.486
13 | KMLEKYKEQLN [TLK2_Y259_R262Q] | 1.01 | 0.426 | 0.619 | 0.503 | 0.51 | 0.598 | 0.721 | 0.56 | 0.507 | 0.53 | 0.864 | 0.539 | 0.585 | 0.393 | 0.604 | 0.336
14 | KNAEKYAEEDR [HSPA9_Y568] | 0.992 | 0.624 | 0.819 | 0.528 | 0.674 | 0.506 | 1.08 | 0.709 | 0.822 | 0.571 | 1.1 | 0.499 | 0.506 | 0.444 | 0.47 | 0.411
15 | KNCFKYFMSDD [ATRX_Y203_YF] | 0.803 | 0.546 | 0.529 | 0.453 | 1.02 | 0.714 | 1.37 | 0.84 | 1.27 | 0.556 | 1.45 | 0.589 | 0.639 | 0.556 | 0.604 | 0.646
16 | KNEIFYQCPDQ [FBXO3_Y223_V221I] | 0.774 | 0.746 | 0.676 | 0.748 | 6.62 | 1.07 | 2.23 | 1.02 | 1.07 | 0.998 | 1.36 | 4.5 | 0.688 | 2.55 | 0.928 | 0.744
17 | KPLMPSMRFSR [SMARCE1_Y73_Y73S_YF] | 0.831 | 0.569 | 0.675 | 0.424 | 0.737 | 0.399 | 0.828 | 0.463 | 0.685 | 0.413 | 0.876 | 0.35 | 0.392 | 0.459 | 0.396 | 0.543
